Target: T1, biotin-labelled EZH2 protein (UniProt Q15910 1-746, limits assumed, biotin label (EZ-link NHS-PEO4-Biotinylation kit))
T1 construct: Probe in solution (1 ug/ml) on the KDM2B peptide microarray; also called NHS-PEO4-Biotinylation-labelled EZH2 protein; recombinant protein
Test: KDM2B peptide array probed with biotin-EZH2 1 ug/ml, SA-HRP/ECL;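 further: Background-corrected optical density of each spot on the membrane, given as percent of the brightest spot (100%), color developed for 5 minutes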
Experimental: (§1) After blocking, the polypeptide microarray was incubated with biotin-labeled target protein for hybridization, visualized with the chemical chromogenic substrate and imaged using a Chempchemi digital imager. The image of colored polypeptide microarray was analyzed for the optical density of the colored points. Particularly, the optical density of each colored point was calculated using the optical density of the respective surrounding background as a reference for background correction. The highest optical density value of the colored point on membrane was set to 100%, and the optical density value of the remaining colored points was converted into percentages relative to the highest value. The points with an optical density percentage of more than 30% on the polypeptide membrane and also with an optical density percentage of less than 30% on the negative membrane were defined as positive colored points.
(§2) For the hybridization experiment, a solution of NHS-PEO4-Biotinylation-labelled EZH2 protein (1 μg/ml) was used for the hybridization of the polypeptide microarray. Streptavidin-HRP was used to amplify the reaction signal according to the experimental procedure and conditions described above, and the time of color development was 5 minutes.
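Further: 100% is the highest background-corrected spot optical density on the membrane.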

T1 sequence (Q15910 whole entry): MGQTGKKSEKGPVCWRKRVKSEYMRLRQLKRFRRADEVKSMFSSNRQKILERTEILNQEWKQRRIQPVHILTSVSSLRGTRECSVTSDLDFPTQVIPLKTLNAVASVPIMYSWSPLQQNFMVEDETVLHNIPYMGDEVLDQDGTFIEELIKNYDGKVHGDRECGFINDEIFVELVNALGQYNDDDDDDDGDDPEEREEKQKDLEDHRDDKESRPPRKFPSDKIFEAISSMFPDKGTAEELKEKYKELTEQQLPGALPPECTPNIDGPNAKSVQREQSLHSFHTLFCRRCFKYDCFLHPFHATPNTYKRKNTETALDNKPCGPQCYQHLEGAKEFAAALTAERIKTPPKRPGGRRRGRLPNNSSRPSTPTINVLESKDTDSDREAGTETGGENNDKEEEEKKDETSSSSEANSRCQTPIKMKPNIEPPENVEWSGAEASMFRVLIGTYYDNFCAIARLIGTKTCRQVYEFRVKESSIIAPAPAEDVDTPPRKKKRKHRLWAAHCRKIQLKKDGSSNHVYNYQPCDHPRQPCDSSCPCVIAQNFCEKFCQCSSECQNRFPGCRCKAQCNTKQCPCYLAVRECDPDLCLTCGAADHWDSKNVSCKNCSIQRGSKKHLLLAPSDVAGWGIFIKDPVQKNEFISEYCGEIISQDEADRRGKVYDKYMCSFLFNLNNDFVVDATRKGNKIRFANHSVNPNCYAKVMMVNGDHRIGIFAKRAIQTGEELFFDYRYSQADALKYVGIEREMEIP

Row | Binder | Intensity (%)
1 | YTKCFEFESATQRPI [peptide 7] | 0
2 | YPFYYEMCWYVLERY [peptide 72] | 0.04
3 | GFSSDSWLEMEEEAC [peptide 81] | 7.19
4 | SWLEMEEEACDQQPQ [peptide 82] | 0
5 | GGNILHSFNVPMQLR [peptide 66] | 0.54
6 | TQRPIDRQRYDENED [peptide 9] | 0
7 | RTLSNESEESVKSTT [peptide 95] | 0
8 | VKSTTLAVDYPKTPT [peptide 97] | 0
9 | VYCVTQRSHLTQEYQ [peptide 75] | 0
10 | HSFNVPMQLRIYEIE [peptide 67] | 0
11 | EEEEKDEEGEGRDRA [peptide 85] | 0
12 | PKPPTDGSTSPTSTP [peptide 88] | 0
13 | QRSHLTQEYQRESML [peptide 76] | 0
14 | QRIELKQGYTFFIPS [peptide 60] | 0.3
15 | PKAPALRFLKRTLSN [peptide 93] | 0
16 | KPSIDGFSSDSWLEM [peptide 80] | 6.61
17 | GRDRAPKPPTDGSTS [peptide 87] | 0
18 | KKTVIYTKCFEFESA [peptide 6] | 27.5
19 | DEEGEGRDRAPKPPT [peptide 86] | 0.03
20 | PMQLRIYEIEDRTRV [peptide 68] | 6.33
21 | KQGYTFFIPSGWIHA [peptide 61] | 0.85
22 | RVERCQRIELKQGYT [peptide 59] | 11.4
23 | GWIHAVYTPVDSLVF [peptide 63] | 1.74
24 | FFIPSGWIHAVYTPV [peptide 62] | 2.54
25 | LRFLKRTLSNESEES [peptide 94] | 0
26 | IDAPRKPSIDGFSSD [peptide 79] | 1.13
27 | RESMLIDAPRKPSID [peptide 78] | 1.74

Target: T1, biotin-labelled EZH2 protein
Test: KDM2B peptide array probed with biotin-EZH2 1 ug/ml, SA-HRP/ECL; Remark: noise
Experimental: as §1, §2

Row | Binder | Intensity (%)
28 | LSWTNISKKQLSWLI [peptide 227] | 0
29 | ETPEAQRDKLYNVIS [peptide 33] | 0
30 | PTLHNLALYEEWVLS [peptide 54] | 0
31 | TWNRWCCDKRLWTRI [peptide 219] | 0.56
32 | RELRHQLGPSLRSPP [peptide 202] | 0.64
33 | TQEYQRESMLIDAPR [peptide 77] | 0
34 | ESDHSRSSSPTAGPS [peptide 182] | 0.36
35 | RGFSLEEKLRSQLYQ [peptide 14] | 0.07
36 | RPPGICERPHRFSKG [peptide 198] | 0
37 | IQMERHVIRPPPISP [peptide 208] | 0
38 | GKTGKQKRGPGFKYA [peptide 146] | 0.01
39 | DRTRVQPKFRYPFYY [peptide 70] | 0.02
40 | MGGSAEDHPPRKRHA [peptide 2] | 0
41 | KCNHAGKTGKQKRGP [peptide 145] | 0
42 | ELSGRKRASSLQTSP [peptide 163] | 0
43 | KSITPLMLSGIIRRQ [peptide 223] | 0
44 | TDASLRLIIRHMPLL [peptide 246] | 0
45 | VTKEGCEQFIAEMSV [peptide 262] | 0
46 | PPISPPPDSLPLDDG [peptide 210] | 0
47 | GGTSVWYHVFRGGKI [peptide 50] | 0
48 | HVIRPPPISPPPDSL [peptide 209] | 0.32
49 | VQFGQVEEKLLQKLS [peptide 266] | 0

Row | Binder | Intensity (%)
50 | LSFFKRCGNICHIDL [peptide 258] | 0.72
51 | ISKKQLSWLINRLPG [peptide 228] | 0
52 | KRASSLQTSPGSSSH [peptide 164] | 0.34
53 | IIRRQPVSLDLSWTN [peptide 225] | 0
54 | RVISRPPPSVSPPKC [peptide 205] | 0.39
55 | RSSSPTAGPSTEGAE [peptide 183] | 0
56 | PPKTRESDHSRSSSP [peptide 181] | 0.3
57 | VTDQCLSFFKRCGNI [peptide 257] | 0.23
58 | LQTSPGSSSHLSPRP [peptide 165] | 0
59 | AMEGKDFNYEYVQRE [peptide 18] | 0
60 | CEQFIAEMSVSVQFG [peptide 263] | 0.05
61 | EMCWYVLERYVYCVT [peptide 73] | 0.19
62 | LSWLINRLPGLRDLV [peptide 229] | 0
63 | TAGPSTEGAEGPEEK [peptide 184] | 0
64 | EEAPRRRSDEHSKKV [peptide 155] | 0
65 | NAIAEMKYPKVKKYC [peptide 44] | 0
66 | LNGTPRELRHQLGPS [peptide 201] | 0.18
67 | FVRYYETPEAQRDKL [peptide 32] | 0
68 | KDMKKFGGPGRMKQS [peptide 127] | 0
69 | NRPGQMDNRSKLRNI [peptide 241] | 0
70 | EIVSVRGFSLEEKLR [peptide 13] | 0.05

From patent US20250197451A1 (CAPITAL MEDICAL UNIVERSITY SCHOOL OF STOMATOLOGY, published 2025)
